Laboratory results taken from publication PMC8596125, “Self‐Stabilized Supramolecular Assemblies Constructed from PEGylated Dendritic Peptide Conjugate for Augmenting Tumor Retention and Therapy” (Advanced Science, 2021).

Key:
[1] = system: mouse red blood cells (RBCs); test: Hemolysis of erythrocytes; type: cell-based; conditions: up to 10.0 mg mL-1, 37 °C, 12 h, absorbance 540 nm
Description: with 6×105 A549 cells subcutaneously on the right flank for the A549 model. About 2 weeks after implantation, mice with a tumor volume size of 100 mm3 were used for biodistribution and imaging, and mice with a tumor volume size of 50 mm3 for […]
1.3.11 Blood compatibility
Erythrocytes morphologies and aggregation
Erythrocytes were collected from female BALB/c mice, and erythrocytes suspension was prepared by centrifuging the citrated whole blood at 1000 g for 5 min at room temperature. After the plasma and buffy coat layers were removed, the erythrocytes were washed with PBS 3 times. […]
The dried erythrocytes samples were coated with gold and analyzed under a SEM. […]
Erythrocytes were diluted with PBS to prepare the erythrocyte suspension. […] The absorbance of the supernatant was measured with a Microplate Reader at 540 nm, and hemolysis rate was determined using the following […]
Where AS is the absorbance of the sample, A100 is the absorbance of lysed erythrocytes in H2O (a positive control), and A0 is the absorbance of 0% hemolysis in PBS (a negative control). […]
The backs of healthy BALB/c mice were depilated 3 days before treatment to ensure that all injures had recovered. […] The degree of skin response was examined and scored according to Table S5, and Paraffin sections of the skin were stained with hematoxylin and eosin (H&E) according to the manufacturer's instructions.[3] […]

4T1 cells = test: Cytotoxicity, CCK-8 assay, 4T1; type: cell-based, mouse; conditions: no light, CCK-8, n = 3
Description: The CCK-8 assay was used to examine the photodynamic therapeutic effect of SSAs on cell viability against three cell lines. 4×103 4T1 cells per well were seeded in a 96-well plate, and then incubated overnight. The cells were treated with different concentrations of Ppa and SSAs at an equivalent Ppa dose. After 24 h incubation, the medium was replaced with fresh one, and the wells were irradiated using a 660 nm laser with 1 J cm−2. After 24 h, the spent media was replaced and the cell viability was assessed using the CCK-8 reagent. The absorbance at […] of each well was recorded on a microplate reader. Untreated cells were served as a control. Results were presented as the average cell viability by following the manufacturer’s instruction. IC50 values were calculated by using nonlinear regression in software Graphpad Prism7. The cytotoxicity of SSAs and Ppa with or without laser against A549 cell line was also measured through the same procedure.
(§1) The cytotoxicity of SSAs and PDP without laser irradiation was also measured by […]

L02 cells = test: Cytotoxicity, CCK-8 assay, L02; type: cell-based, human; conditions: L02 normal cells, 24 h (PDP 24 h and 48 h), CCK-8, n = 3
Description: Academy of Science Cell Bank for Type Culture Collection (Shanghai, China) and cultured in RPMI-1640 medium, supplemented with 10% fetal bovine serum (FBS), penicillin G (100 U mL-1) and streptomycin (100 μg mL-1), and incubated in 5% CO2 […]
1.3.7 In vitro ROS generation
The intracellular ROS generation was analyzed by using a peroxide-sensitive fluorescent probe, 2′, 7′- dichlorofluorescin-diacetate (DCFH-DA, Beyotime, Beijing, China). According to the manufacturer’s instruction, cells (1×10^6 cells per well) were treated SSAs and Ppa at the same concentration of 1 μg Ppa mL-1. […] 20,000 events were collected and Flowjo software was used for quantifying the intensity of fluorescence.
The CCK-8 assay was used to examine the photodynamic therapeutic effect of SSAs on cell viability against three cell lines. […] After 24 h, the spent media was replaced and the cell viability was assessed using the CCK-8 reagent. The absorbance at […] of each well was recorded on a microplate reader. […] IC50 values were calculated by using nonlinear regression in software Graphpad Prism7. The cytotoxicity of SSAs and Ppa with or without laser against A549 cell line was also measured through the same procedure.
as §1

[2] = Disassembly behavior in Triton X-100, NaCl or urea (DLS); type: physicochemical; conditions: 1 h incubation, n = 6
Description: (§2) 1.3.2 Size, zeta potential and morphology
(§3) The size, polydispersity index (PDI), correlation coefficient and zeta potential of self-stabilized supramolecular assemblies (PDPP) were measured by DLS, and the morphology and particle size of PDPP were observed under a TEM. Briefly, PDPP was dissolved in Milli-Q water and ultrasonically dispersed to prepare PDPP solutions at different concentrations (0.1, 0.5, 1.0, 5.0, and 10.0 mg mL-1) for DLS, TEM measurements. Furthermore, the effects of hydrophobic force, ionic interaction, and hydrogen bonding on the supramolecular self-assembly of PDPP were assessed by adding Triton X-100, NaCl, and urea to the PDPP solution with the final concentrations of 1, 5, 10, 20, 50 and 100 mM for Triton X-100, NaCl, and urea. After incubation for 1 h, the size changes of PDPP were recorded by DLS. […]

[3] = Size, PDI and zeta potential by DLS; type: physicochemical
Description: as §2
(§4) The size, polydispersity index (PDI), correlation coefficient and zeta potential of self-stabilized supramolecular assemblies (PDPP) were measured by DLS, and the morphology and particle size of PDPP were observed under a TEM. […]
(§5) 1.3.3 Colloidal stability
(§6) The colloidal stability of PDPP was assessed by monitoring the change in the size and PDI as a function of time. PDPP were added in H2O, PBS, H2O containing 10% of fetal bovine serum (FBS), and PBS containing 10% of FBS respectively, and these mixtures were incubated at 37℃ in a humidified chamber, and their sizes and PDI were monitored by DLS at a pre-determined time. […]

[4] = Critical assembly concentration (pyrene fluorescence probe); type: physicochemical; conditions: in H2O, pyrene as fluorescence probe
Description: Ppa was dissolved in anhydrous DMSO and then diluted in different concentrations.
The absorbance values of PDPP at 667 nm were obtained and the drug loading was calculated according to the standard absorption curve. Drug loading content (DLC) = (weight of Ppa in PDPP / weight of PDPP) × 100%.
as §2
as §3, with “Briefly, PDPP was dissolved in Milli-Q water and ultrasonically dispersed to prepare PDPP solutions at different concentrations (0.1, 0.5, 1.0, 5.0, and 10.0 mg mL-1) for DLS, TEM measurements.” left out
as §6
The CAC of PDPP was determined by using pyrene as a fluorescence probe. […]
Fluorescence emission spectrum […]

[5] = Colloidal stability (size and PDI over time by DLS); type: physicochemical; conditions: H2O, PBS, H2O or PBS with 10% FBS, 37 °C, 7 d, n = 3
Description: as §2, §4, §5, §6

Substance	Hemolysis [1]	Cytotoxicity without laser irradiation (4T1 cells)	Cytotoxicity without laser irradiation (L02 cells)	Change in size and PDI after dispersion in NaCl or urea solution ([2]; 1-100 mM NaCl or urea)	Disassembly behavior in Triton solution ([2]; Triton X-100 at a high concentration (1-100 mM tested))	PDI ([3]; in H2O)	Size ([3]; in H2O) [nm·days]	Zeta Potential ([3]; in H2O) [mV]	PDI ([3]; in H2O+10%FBS)	Size ([3]; in H2O+10%FBS) [nm·days]	Zeta Potential ([3]; in H2O+10%FBS) [mV]	PDI ([3]; in PBS)	Size ([3]; in PBS) [nm·days]	Zeta Potential ([3]; in PBS) [mV]	PDI ([3]; in PBS+10%FBS)	Size ([3]; in PBS+10%FBS) [nm·days]	Zeta Potential ([3]; in PBS+10%FBS) [mV]	Critical assembly concentration (CAC) [4] [µg/mL]	Colloidal stability: size and PDI over time [5]
PEG‐dendritic peptide [PDP]	no hemolysis is observed and detected	no significant cytotoxicity	no significant cytotoxicity																
PEG‐dendritic peptide‐pyropheophorbide a [PDPP]				no significant change	disassembly behaviors of PDPP would have occurred	0.152±0.036	104.68 ± 15.10	-25.49±0.58	0.167±0.012	96.13 ± 9.72	-13.57±0.85	0.137±0.036	100.38 ± 19.12	-5.28±7.86	0.154±0.013	102.58 ± 8.94	-7.34±0.94	4.85	remain unchanged for 7 d
